In article PMC5726854:
Each block holds one substance with its values, some of them ahead of it.

How the values were obtained:
[1] = target: E. coli ribosomes (E. coli); test: FRAP (diffusion coefficient in living cells); E. coli cytoplasm, 30°C, 0.28 Osm; fraction bound from the effective diffusion coefficient (Equation 1); Kd per binding site from Equation 2 with 660 µM binding sites assumed
[2] = target: Hfx. volcanii ribosomes (Haloferax volcanii (endogenous in H1895)); test: FRAP (diffusion coefficient in living cells); Hfx. volcanii cytoplasm, 30°C; fraction bound from the effective diffusion coefficient; Kd per binding site with the ribosome concentration assumed as in E. coli
[3] = target: L. lactis ribosomes (Lactococcus lactis (endogenous in NZ9000)); test: FRAP (diffusion coefficient in living cells); L. lactis cytoplasm, 30°C; fraction bound from the effective diffusion coefficient; Kd per binding site with the ribosome concentration assumed as in E. coli

- Kd [1]: 6.7 µM
- fraction bound [1]: 0.99
Substance: +25 GFP

- Kd [2]: 155 µM
- fraction bound [2]: 0.81
Substance: +25 GFP (expressed in Hfx. volcanii)

- Kd [3]: 65 µM
Substance: +25 GFP (expressed in L. lactis)
